For data set [1], the system named is maize EPSPS. As to the kind of experiment: kcat gly / kgly: enzyme turnover under application conditions (30 μM PEP and S3P, 1 mM glyphosate), phosphate release coupled to MESG. The class given is biochemical. Here is the method: A more straight-forward, accurate and meaningful parameter is one in which one rate measurement is performed under presumed in vivo conditions, if known. To establish a set of conditions that mimic those under which the mutated enzyme needs to perform, the concentrations of PEP and S3P were set low (30 uM, subject to the sensitivity of assay conditions) to approach the presumed intracellular concentrations (˜15 uM, the approximate values of KM for both PEP and S3P). Glyphosate is included at 1 mM. The pH is set at 7.0 and ionic strength at 100 mM KCl, also to mimic known in vivo conditions. Ethylene glycol is present at 5% (v/v) to approximate the dielectric constant of intracellular fluid. The parameter is termed “enzyme turnover under application conditions”, which is herein shortened to “kcat gly”. The conventional formatting of the expression “kcat” is not used, to avoid this term being characterized as a standard kinetic constant.
(§1) EPSPS activity was determined by quantifying the phosphate generated from the EPSPS reaction. Release of inorganic phosphate was coupled to its reaction with 2-amino-6-mercapto-7-methylpurine ribonucleoside (MESG), catalyzed by purine nucleoside phosphorylase, according to previously described protocols. To determine the kcat gly, enzyme preparations were normalized to 0.1 mg/ml and four- to six-microliter aliquots of normalized enzyme were added to the wells of a low UV-absorbing 96-well assay plate (Greiner UV-Star). Reactions were started with the addition of 2×147 μl of reaction mixture containing 25 mM Hepes, pH 7.0, 100 mM KCl, 5% ethylene glycol, 30 μM each of PEP and S3P, 0.15 mM MESG, 1.5 U/ml purine nucleoside phosphorylase (Sigma N8264) and 1 mM glyphosate. Absorbance was monitored at 4 sec intervals for 50 sec with a Spectramax plate reader (Molecular Devices). […] Division by the enzyme concentration (0.04 to 0.1 uM, depending on activity) yields “kcat gly” in units of min^−1.
(§2) Approximately 30 substitutions were designed into each library. Assuming an average incorporation rate of six substitutions per variant, the theoretical size of such libraries is ˜7×10^5. Libraries were screened using methods described previously and the enhanced method described in Example 2. The number of colony-forming units plated and screened was in the range of 50 to 100% of the theoretical size. Up to 200 colonies per library were picked for evaluation of the expressed variant. Proteins were purified as described previously in PCT/US2016/054399, incorporated herein by reference. Protein concentration was determined by measuring optical density at 280 nm. The extinction coefficient of native maize EPSPS (0.676 OD/mg/ml) was calculated by vNTI and used to convert OD280 to mg/ml. Kinetic parameters were determined as described in Example 1.
A customized parameter for predicting performance in the treated plant that would be a more accurate representation than kcat/Km*Ki. […] However, kcat/Km*Ki may be inadequate for predicting the reaction velocity under the conditions of the application (plants sprayed with glyphosate) because it may neglect concentrations of substrate and inhibitor, factors that are not intrinsic to the enzyme, but on which the reaction rate depends. Therefore, libraries derived from C1 on in FIG. 2 were evaluated with a single rate measurement designed to take all factors in the rate equation for competitive inhibition into account. […] Glyphosate was included at 1 mM, a concentration attainable in tissues, especially meristems, receiving metabolite flow from treated leaves. The pH (7.0), ionic strength (100 mM KCl) and co-solvent concentration (5% ethylene glycol) were also intended to mimic in vivo conditions. The unit for the parameter is reaction rate (μM·min^−1) per enzyme concentration (μM), or min^−1, describing the enzyme turnover under application conditions, which we abbreviate as “kgly”. […]

The target of data set [2] is maize EPSPS. As to the kind of experiment: substrate saturation kinetic analysis (kcat, KM PEP, KI glyphosate). The class given is biochemical. As to conditions: for kcat/Km*Ki: calculated with Km for PEP. Here is the method:
as §1, §2
Combinatorial shuffling, maize native EPSPS—The mutations discovered were used to construct a combinatorial library designed to explore combinations of the desensitizing mutations in novel sequence contexts provided by the newly identified neutral mutations. Note that the amino acid position numbering in this Example 10 refers to the relative position of native maize EPSPS without the N-terminal Met. Therefore, G101A in this Example would be G102A in reference to SEQ ID NO: 1, wherein the maize EPSPS sequence has a Met added at the N-terminal. The diversity used was the same with the addition of G101A, T102 (IALGV) and P106(WA). In all, 43 substitutions at 29 positions were selected. The library was synthesized entirely from oligonucleotides, using the known technique of synthetic shuffling and was termed NatFS (Native, fully synthetic). The vector DNA of the library was transformed into the BL21(DE3) Tuner-AroA knockout strain and the cells were plated onto M9 medium containing either 30 mM glyphosate and 30 μM of the lac operon inducer isopropyl β-D-1-thiogalactopyranoside (IPTG) or 50 mM glyphosate and no IPTG. The 184 colonies that grew on either plate were picked and subjected to a second tier of screening in which EPSPS proteins were purified and activity measured at high (200 μM) and low (50 μM) PEP and S3P, with or without 10 μM glyphosate. Selected variants were subjected to substrate saturation kinetic analysis.

The mark [3] stands for this setting: Table 2, 30 μM PEP and S3P, 1 mM glyphosate, pH 7.0.
The mark [4] stands for this setting: Table 2, KM for PEP, read-out: KM.
Setting [5] is: Table 2, discrimination between glyphosate and PEP.
[6] abbreviates: apparent Km, PEP present at 10 times its Km, read-out: Km S3P.
The mark [7] stands for this setting: apparent Km, S3P present at 10 times its Km, read-out: Km PEP.

Like-named read-outs stand apart in the source and are kept apart here.

B1: G102A: maize EPSPS with G102A mutation (G101A when numbered without N-terminal Met) (protein)
chain: MAGAEEIVLQPIKEISGTVKLPGSKSLSNRILLLAALSEGTTVVDNLLNSEDVHYMLGALRTLGLSVEADKAAKRAVVVGCGGKFPVEDAKEEVQLFLGNAATAMRPLTAAVTAAGGNATYVLDGVPRMRERPIGDLVVGLKQLGADVDCFLGTDCPPVRVNGIGGLPGGKVKLSGSISSQYLSALLMAAPLALGDVEIEIIDKLISIPYVEMTLRLMERFGVKAEHSDSWDRFYIKGGQKYKSPKNAYVEGDASSASYFLAGAAITGGTVTVEGCGTTSLQGDVKFAEVLEMMGAKVTWTETSVTVTGPPREPFGRKHLKAIDVNMNKMPDVAMTLAVVALFADGPTAIRDVASWRVKETERMVAIRTELTKLGASVEEGPDYCIITPPEKLNVTAIDTYDDHRMAMAFSLAACAEVPVTIRDPGCTRKTFPDYFDVLSTFVKN
modifications: Zea mays
Regarding B1, the kcat gly in data set [1] (setting [3]) amounted to 0.203 s⁻¹. The molecule also came in with a kgly in data set [1] (enzyme turnover at 30 μM PEP and S3P, 1 mM glyphosate) of 25.7 ± 0.2 min⁻¹. The Ki in data set [2] (Ki for glyphosate) was 1930 ± 40 µM; in data set [2] (Table 2, inhibitor glyphosate), 1610 µM. Further, the values for the kcat in data set [2] (Table 2) and in data set [2] (maize EPSPS variants) were 10.2 s⁻¹ and 16.67 ± 0.583 s⁻¹, respectively. For the same molecule, the “kcat/KM*KI” value in data set [2] (Table 2) was 3176. Further, the Km stood at 315 µM in data set [2] (setting [4]), 84 ± 2.5 µM in data set [2] (setting [6]) and 333 ± 26 µM in data set [2] (setting [7]). In addition, the KI/KM is 5.11 in data set [2] (setting [5]) and 5.1 in data set [2] (text b176). Further, the “kcat/Km*Ki” value in data set [2] is 5780. Besides, in data set [2] (relative to native EPSPS), the “increase in Ki for glyphosate” value is recorded as 30,00 fold. Besides, in data set [2] (relative to native EPSPS), the “increase in Km for PEP” value was found to be 35 fold.

B2: Zm native: native maize EPSPS with added N-terminal Met, SEQ ID NO: 1, reference EPSPS sequence (protein)
chain: MAGAEEIVLQPIKEISGTVKLPGSKSLSNRILLLAALSEGTTVVDNLLNSEDVHYMLGALRTLGLSVEADKAAKRAVVVGCGGKFPVEDAKEEVQLFLGNAGTAMRPLTAAVTAAGGNATYVLDGVPRMRERPIGDLVVGLKQLGADVDCFLGTDCPPVRVNGIGGLPGGKVKLSGSISSQYLSALLMAAPLALGDVEIEIIDKLISIPYVEMTLRLMERFGVKAEHSDSWDRFYIKGGQKYKSPKNAYVEGDASSASYFLAGAAITGGTVTVEGCGTTSLQGDVKFAEVLEMMGAKVTWTETSVTVTGPPREPFGRKHLKAIDVNMNKMPDVAMTLAVVALFADGPTAIRDVASWRVKETERMVAIRTELTKLGASVEEGPDYCIITPPEKLNVTAIDTYDDHRMAMAFSLAACAEVPVTIRDPGCTRKTFPDYFDVLSTFVKN
modifications: Zea mays
Take B2: the kcat gly in data set [1] (setting [3]) stood at 0 s⁻¹. Also, the “kcat/KM*KI” value in data set [2] and in data set [2] (Table 2) was 11.8 throughout. For the same molecule, the Ki in data set [2] (Ki for glyphosate) turned out to be 0.066 ± 0.003 µM; in data set [2] (Table 2, inhibitor glyphosate), 0.13 µM; in data set [2] (glyphosate, text b235) it was 0.066 µM. For the same molecule, the kcat is 24.4 s⁻¹ in data set [2] (Table 2) and 27.17 ± 0.233 s⁻¹ in data set [2] (maize EPSPS variants). The Km in data set [2] (setting [4]) is 15.7 µM; in data set [2] (setting [6]) it was 13.2 ± 0.6 µM; in data set [2] (setting [7]), 9.5 ± 0.3 µM; in data set [2] (approximate value, read-out: Km for S3P), 10 to 15 µM; in data set [2] (read-out: Km for PEP), 10 to 15 µM. Further, the KI/KM in data set [2] (setting [5]) amounted to 0.008. For the same molecule, in data set [2], the “kcat/Km*Ki” value was 11.

B3: Zm D2: maize EPSPS variant, SEQ ID NO: 10 (protein)
chain: MRGWEEIVLQPIKEISGTVKLPGSKSLSNRILLLAALSEGTTVVDNLLNSEDVHYMLGALRTLGLSVEHDKAAKRAVVVGCGGRFPVEDAKGEVQLFCGNAATAMRPLTAAVTAAGGNATYVLDGVPRMRERPIGDLVVGLKQLGADVDCFLGTDCPPVRVNGIGGLPGGKVKLSGSISSQYLSALLMAAPLALGDVEIEIIDKLISLPYVEMTLRLMERFGVKAEHSDSWDRFYIKGGQKYESPKNAYVEGDASSASYFLAGAAITGGTVTVEGCGTTSLQGDVKFAEVLEMMGAKVTWTETSVTVTGPPREPFGRKHLKAIDVNMNKMPDAAMTLAVVALFADGPTAIRDVASWRVKETERMVAIRTELTKLGASVEEGPDYCIITPPPKLNVTAIDTYGDHRMAMAFSLAACAEVPVTIRDPGCTRKTFPDYFDVLSTFVKN
modifications: Zea mays
On to B3, for which the kcat gly came out at 1.72 s⁻¹ in data set [1] (setting [3]) and 1.9 s⁻¹ in data set [1] (Table 5, maize variants). Further, the Zm/Os in data set [1] (Table 5, ratio of kcat gly, maize variant to rice ortholog) is listed as 1.28. Besides, in data set [2] (Table 2), the turnover number (kcat) was 6.07 s⁻¹. For the same molecule, in data set [2] (Table 2), the “kcat/KM*KI” value is listed as 18100. For the same molecule, the Km in data set [2] (setting [4]) turned out to be 20 µM. For the same molecule, the KI/KM in data set [2] (setting [5]) came out at 49.7. Moreover, the Ki in data set [2] (Table 2, inhibitor glyphosate) turned out to be 993 µM.

B4: Zm D2-64: maize EPSPS variant, SEQ ID NO: 7 (protein)
chain: MRKWEEIVLQPIKEISGTVKLPGSKSLSNRILLLAALSEGTTVVDNLLNSEDVLYMLGALRTLGLSVEHDKAAKRAVVVGCGGRFPVEDAKGEVQLFCGNAATAMRPLTAAVTAAGGNATYVLDGVPRMRERPIGDLVVGLKQLGADVDCFLGTDCPPVRVNGIGGLPGGKVKLSGSISSQYLSALLMAAPLALGDVEIEIIDKLISLPYVEMTLRLMERFGVKAEHSDSWDRFYIKGGQKYESPKNAYVEGDASSASYFLAGAAITGGTVTVEGCGTTSLQGDVKFAEVLEMMGAKVTWTETSVTVTGPPREPFGRKHLKAIDVNMNKMPDAAMTLAVVALFADGPTAIRDVASWRVKETERMVAICTELTKLGASVEEGPDYCIITPPPKLNVTAIDTYGDHRMAMAFSLAACAEVPVTIRDPGCTRKTFPDYFDVLSTFVKN
modifications: Zea mays
Consider B4, for which the kcat gly in data set [1] (setting [3]) turned out to be 1.68 s⁻¹. Besides, in data set [2] (Table 2), the kcat turned out to be 7.97 s⁻¹ and the “kcat/KM*KI” value came out at 22900. Moreover, the Michaelis-Menten constant (Km) in data set [2] (setting [4]) is 19.6 µM. In addition, the KI/KM in data set [2] (setting [5]) amounted to 47.9. Moreover, the Ki in data set [2] (Table 2, inhibitor glyphosate) was 938 µM.

B5: Zm D2-15: maize EPSPS variant, SEQ ID NO: 9 (protein)
chain: MRGWEEIVLQPIKEISGTVKLPGSKSLSNRILLLAALAEGTTVVDNLLNSEDVHYMLGALRTLGLSVEHDKAAKRAVVVGCGGRFPVEDAKEEVQLFCGNAATAMRPLTAAVTAAGGNATYVLDGVPRMRERPIGDLVVGLKQLGADVDCFLGTDCPPVRVNGIGGLPGGKVKLSGSISSQYLSALLMAAPLALGDVEIEIIDKLISLPYVEMTLRLMERFGVKAEHNDSWDRFYIKGGQKYESPKNAYVEGDASSASYFLAGAAITGGTVTVEGCGTTSLQGDVKFAEVLEMMGAKVTWTETSVTVSGPPREPFGRKHLKAIDVNMNKMPDAAMTLAVVALFADGPTAIRDVASWRVKETERMVAICTELTKLGASVEEGPDYCIITPPPKLNVTAIDTYGDHRMAMAFSLAACAEVPVTIRDPGCTRKTFPDYFDVLSTFVKN
modifications: Zea mays
On to B5, for which the kcat gly in data set [1] (setting [3]) was 1.7 s⁻¹. Also, in data set [2] (Table 2), the kcat is 7.87 s⁻¹ and the “kcat/KM*KI” value is on record as 36400. In addition, in data set [2] (setting [4]), the Km was determined as 21.8 µM. Also, the KI/KM in data set [2] (setting [5]) is 77.1. For the same molecule, the Ki in data set [2] (Table 2, inhibitor glyphosate) amounted to 1680 µM.

Values taken from US20200392528A1, “IMPROVED PLANT EPSP SYNTHASES AND METHODS OF USE” (PIONEER HI-BRED INTERNATIONAL, INC., priority 2017, published 2020).
